In publication PMC4357707 (Nucleic Acids Research, 2015):

Assays:
Experiment in all cases: EMSA
HEN1-KKKK68-71SAAS = target: T1, HEN1-KKKK68-71SAAS (Arabidopsis thaliana, UniProt Q9C5Q8 1-942, K68S;K69A;K70A;K71S)
T1 sequence: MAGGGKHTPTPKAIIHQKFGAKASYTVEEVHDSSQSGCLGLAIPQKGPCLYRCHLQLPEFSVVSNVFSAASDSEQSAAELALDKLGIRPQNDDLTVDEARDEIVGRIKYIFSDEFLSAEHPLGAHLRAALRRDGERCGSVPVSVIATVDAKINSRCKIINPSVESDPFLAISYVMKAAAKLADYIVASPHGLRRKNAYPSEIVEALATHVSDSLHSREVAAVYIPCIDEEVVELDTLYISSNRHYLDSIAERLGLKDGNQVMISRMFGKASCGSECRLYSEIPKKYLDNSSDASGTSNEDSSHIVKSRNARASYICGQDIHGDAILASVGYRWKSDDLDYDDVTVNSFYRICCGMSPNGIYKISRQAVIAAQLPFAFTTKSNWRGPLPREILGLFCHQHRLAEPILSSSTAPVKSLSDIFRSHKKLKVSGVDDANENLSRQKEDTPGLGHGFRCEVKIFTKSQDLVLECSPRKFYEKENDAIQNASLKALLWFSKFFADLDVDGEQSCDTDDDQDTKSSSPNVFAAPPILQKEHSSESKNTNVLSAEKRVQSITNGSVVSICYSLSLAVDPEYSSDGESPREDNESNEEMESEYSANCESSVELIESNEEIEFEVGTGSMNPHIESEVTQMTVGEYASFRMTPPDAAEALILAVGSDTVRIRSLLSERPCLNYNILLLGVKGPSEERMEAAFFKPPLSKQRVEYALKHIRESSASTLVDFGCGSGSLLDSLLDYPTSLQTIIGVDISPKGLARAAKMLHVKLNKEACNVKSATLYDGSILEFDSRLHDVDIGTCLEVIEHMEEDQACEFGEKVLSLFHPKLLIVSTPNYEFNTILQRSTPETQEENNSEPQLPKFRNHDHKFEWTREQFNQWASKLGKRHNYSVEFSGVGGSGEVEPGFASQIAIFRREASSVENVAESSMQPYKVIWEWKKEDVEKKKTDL

HEN1-KK69-70AA = target: T2, HEN1-KK69-70AA (Arabidopsis thaliana, UniProt Q9C5Q8 1-942, K69A;K70A)
T2 sequence: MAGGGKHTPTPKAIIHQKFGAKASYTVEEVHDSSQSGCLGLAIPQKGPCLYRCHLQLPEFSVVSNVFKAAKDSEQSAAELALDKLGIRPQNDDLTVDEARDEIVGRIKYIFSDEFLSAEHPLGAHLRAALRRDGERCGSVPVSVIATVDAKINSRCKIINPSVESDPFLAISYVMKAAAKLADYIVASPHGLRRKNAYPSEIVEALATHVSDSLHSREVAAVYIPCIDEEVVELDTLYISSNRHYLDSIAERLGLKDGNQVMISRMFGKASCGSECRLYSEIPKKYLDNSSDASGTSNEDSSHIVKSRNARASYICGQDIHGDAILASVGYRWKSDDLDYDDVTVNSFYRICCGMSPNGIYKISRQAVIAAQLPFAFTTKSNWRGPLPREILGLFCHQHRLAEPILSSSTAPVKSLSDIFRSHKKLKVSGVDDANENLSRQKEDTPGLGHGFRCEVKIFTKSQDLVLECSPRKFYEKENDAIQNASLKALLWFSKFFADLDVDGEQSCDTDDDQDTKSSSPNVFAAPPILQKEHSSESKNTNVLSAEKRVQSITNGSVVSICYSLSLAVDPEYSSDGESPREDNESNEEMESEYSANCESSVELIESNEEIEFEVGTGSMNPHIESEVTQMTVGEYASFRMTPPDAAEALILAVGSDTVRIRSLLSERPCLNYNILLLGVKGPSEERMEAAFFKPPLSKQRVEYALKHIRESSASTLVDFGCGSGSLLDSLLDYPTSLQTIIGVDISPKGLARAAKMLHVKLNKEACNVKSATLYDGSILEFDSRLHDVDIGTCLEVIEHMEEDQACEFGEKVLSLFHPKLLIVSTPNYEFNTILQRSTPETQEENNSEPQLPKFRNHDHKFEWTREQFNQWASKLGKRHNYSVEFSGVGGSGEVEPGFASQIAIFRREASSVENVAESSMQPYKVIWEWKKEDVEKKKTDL

HYL1 = target: T3, HYL1 (Arabidopsis thaliana, UniProt O04492 1-419)
T3 sequence: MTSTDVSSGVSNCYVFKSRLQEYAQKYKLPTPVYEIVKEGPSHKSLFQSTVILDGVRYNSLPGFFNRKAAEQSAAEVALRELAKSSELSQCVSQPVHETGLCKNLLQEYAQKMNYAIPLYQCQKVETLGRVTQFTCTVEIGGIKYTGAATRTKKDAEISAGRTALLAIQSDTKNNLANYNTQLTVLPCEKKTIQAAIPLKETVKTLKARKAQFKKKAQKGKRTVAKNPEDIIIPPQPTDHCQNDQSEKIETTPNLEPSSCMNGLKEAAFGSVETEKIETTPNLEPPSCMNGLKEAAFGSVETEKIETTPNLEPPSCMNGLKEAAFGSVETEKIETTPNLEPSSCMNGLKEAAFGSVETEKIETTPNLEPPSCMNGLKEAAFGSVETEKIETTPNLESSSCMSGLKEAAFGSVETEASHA

B1: miR173/miR173* (dsRNA)
RNA 1: UUCGCUUGCAGAGAGAAAUCAC
RNA 2: GAUUCUCUGUGUAAGCGAAAG
B1: no binding (HEN1-KKKK68-71SAAS); no binding (HEN1-KK69-70AA); binds (HYL1).
